According to publication PMC12259267, “Disruption of the KLHL37–N-Myc complex restores N-Myc degradation and arrests neuroblastoma growth in mouse models” (The Journal of Clinical Investigation, 2025):

How the values were obtained:
Conditions in all cases: both partners purified
[1] = target: T1, recombinant KLHL37-His protein (UniProt O14682 1-589); assay: pull-down; in vitro co-IP: recombinant KLHL37-His incubated with GST fusion protein at RT (25°C) for 3 hours, then GST resin (preblocked with 1% BSA); IP: GST, IB: KLHL37
T1 construct: Kelch-like protein 37 (KLHL37), also known as ectodermal-neural cortex 1 (ENC1); also called rKLHL37-His; KLHL37-His (6x); source: E. coli BL21, purified (HisTrap HP)
T1 sequence (looked up): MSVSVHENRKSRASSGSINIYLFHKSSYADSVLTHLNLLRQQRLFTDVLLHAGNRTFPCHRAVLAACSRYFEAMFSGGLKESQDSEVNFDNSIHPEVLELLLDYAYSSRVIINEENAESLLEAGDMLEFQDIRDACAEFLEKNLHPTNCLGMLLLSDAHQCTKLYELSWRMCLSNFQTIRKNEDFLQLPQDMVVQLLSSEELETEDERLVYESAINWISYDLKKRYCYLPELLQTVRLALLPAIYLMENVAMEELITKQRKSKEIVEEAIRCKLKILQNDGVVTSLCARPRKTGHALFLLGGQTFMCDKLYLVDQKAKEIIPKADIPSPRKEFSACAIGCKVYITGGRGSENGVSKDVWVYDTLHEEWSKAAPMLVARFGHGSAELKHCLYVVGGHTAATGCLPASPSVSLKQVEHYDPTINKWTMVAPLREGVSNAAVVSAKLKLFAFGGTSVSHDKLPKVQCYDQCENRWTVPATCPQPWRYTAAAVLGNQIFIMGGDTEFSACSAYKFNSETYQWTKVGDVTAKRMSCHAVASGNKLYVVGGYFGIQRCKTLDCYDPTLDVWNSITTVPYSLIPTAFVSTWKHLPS

[2] = target: T2, KLHL37-His recombinant protein (UniProt O14682 1-589); assay: pull-down; in vitro co-IP: recombinant KLHL37-His incubated with GST or GST–N-Myc at RT (25°C) for 3 hours, then GST resin preblocked with 1% BSA
T2 construct: Kelch-like protein 37 (KLHL37, ENC1); the methods name only KLHL37-His; also called recombinant KLHL37; KLHL37-His (6×); source: E. coli BL21, purified (HisTrap HP)
T2 sequence (looked up): T1 sequence (looked up)

[3] = target: T2, KLHL37-His recombinant protein; assay: MST; GFP–N-Myc or GFP–C-Myc at 200 nM in PBS-T (0.05% Tween 20); KLHL37-His serially diluted 16 times from 27.3 nM (N-Myc) or 7 μM (C-Myc); mixed 1:1; EC50 fitted

B1: recombinant GST-N-Myc protein (natural protein, UniProt P04198 1-464, looked up)
chain: MPSCSTSTMPGMICKNPDLEFDSLQPCFYPDEDDFYFGGPDSTPPGEDIWKKFELLPTPPLSPSRGFAEHSSEPPSWVTEMLLENELWGSPAEEDAFGLGGLGGLTPNPVILQDCMWSGFSAREKLERAVSEKLQHGRGPPTAGSTAQSPGAGAASPAGRGHGGAAGAGRAGAALPAELAHPAAECVDPAVVFPFPVNKREPAPVPAAPASAPAAGPAVASGAGIAAPAGAPGVAPPRPGGRQTSGGDHKALSTSGEDTLSDSDDEDDEEEDEEEEIDVVTVEKRRSSSNTKAVTTFTITVRPKNAALGPGRAQSSELILKRCLPIHQQHNYAAPSPYVESEDAPPQKKIKSEASPRPLKSVIPPKAKSLSPRNSDSEDSERRRNHNILERQRRNDLRSSFLTLRDHVPELVKNEKAAKVVILKKATEYVHSLQAEEHQLLLEKEKLQARQQQLLKKIEHARTC
notes: N-Myc; also called rGST-N-Myc; source: SF9 insect cells (baculovirus), purified (GST TRAP HP); not shown: GST, N-terminal, kept
- binding result [1]: binds

B2: GST–N-Myc recombinant protein (natural protein, UniProt P04198 1-464, looked up)
chain: B1 chain
notes: N-Myc; source: SF9 insect cells (baculovirus), purified (GST TRAP HP); not shown: GST, N-terminal, kept
- binding result [2]: binds

B3: recombinant GFP–N-Myc (natural protein, UniProt P04198 1-464, looked up)
chain: B1 chain
notes: N-Myc; also called rGFP–N-Myc; source: E. coli BL21
- binding result [3]: binds
